Biological target: Oryza sativa hyperosmolality-gated protein OsOSCA1.2 (Oryza sativa (rice))
Assay: SEC-MALS

Substance: Oryza sativa hyperosmolality-gated protein OsOSCA1.2 (natural protein)
- stoichiometry N: 2

Reference: doi:10.1101/505453
